Experimental findings from article PMC7806715, “Discovery of small molecules targeting the tandem tudor domain of the epigenetic factor UHRF1 using fragment-based ligand discovery” (Scientific Reports, 2021) are described below.

The test addresses T1, FLAG-C-UHRF1 (containing SRA, RING E3 domains and PBR, aa 414–793) (UniProt Q96T88 414-793).
T1 construct: UHRF1 C-terminal fragment with the SRA domain, PBR and RING domain, aa 414–793; Cloned into the vector pMCSG7; The methods mix the names His6-C-FLAG-UHRF1, FLAG-C-UHRF1 and C-FLAG-UHRF1; also called FLAG tagged-C-UHRF1; source: Rosetta (DE3) E. coli, purified (Nuvia IMAC, TEV protease digestion to remove the His-tag, second IMAC pass)
T1 sequence (looked up): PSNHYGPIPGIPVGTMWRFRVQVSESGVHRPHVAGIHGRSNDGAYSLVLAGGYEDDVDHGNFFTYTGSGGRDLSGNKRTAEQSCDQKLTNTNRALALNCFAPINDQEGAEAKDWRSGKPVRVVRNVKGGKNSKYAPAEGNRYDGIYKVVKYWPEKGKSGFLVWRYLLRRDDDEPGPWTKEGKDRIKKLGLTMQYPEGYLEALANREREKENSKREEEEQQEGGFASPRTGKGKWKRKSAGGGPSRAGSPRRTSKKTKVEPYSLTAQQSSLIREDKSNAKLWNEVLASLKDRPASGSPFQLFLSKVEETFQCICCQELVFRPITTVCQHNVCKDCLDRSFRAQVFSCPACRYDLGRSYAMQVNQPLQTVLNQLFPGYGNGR
Description: AlphaScreen or HTRF; AlphaScreen: 300 nM biotinylated-His-Avitag-N-UHRF1 on streptavidin donor beads, 300 nM FLAG-C-UHRF1 on anti-FLAG acceptor beads; 50 mM HEPES pH 6.5 (screen) or 50 mM sodium phosphate pH 7 (dose response), 150 mM NaCl, 0.1% Triton X-100, 1 mM DTT; room temperature; inhibition by fragments or histone peptides. The following applies: both partners purified. On the technique in general: In Alpha technology, singlet oxygen from a donor bead excites a nearby acceptor bead.

B1: biotinylated-His-AviTag-N-UHRF1 (containing UBL and TTD, aa 1–285) (domain or fragment, UniProt Q96T88 1-285, looked up)
chain: MWIQVRTMDGRQTHTVDSLSRLTKVEELRRKIQELFHVEPGLQRLFYRGKQMEDGHTLFDYEVRLNDTIQLLVRQSLVLPHSTKERDSELSDTDSGCCLGQSESDKSSTHGEAAAETDSRPADEDMWDETELGLYKVNEYVDARDTNMGAWFEAQVVRVTRKAPSRDEPCSSTSRPALEEDVIYHVKYDDYPENGVVQMNSRDVRARARTIIKWQDLEVGQVVMLNYNPDNPKERGFWYDAEISRKRETRTARELYANVVLGDDSLNDCRIIFVDEVFKIERPGE
modifications: biotin on the AviTag
notes: Cloned into the vector pMCSG51; also called biotinylated-AviTag-N-UHRF1
Take B1: the binding result is “binds”.
